T1: YFP-ΔGL1,2 Pins-CFP fusion protein (Pins FRET biosensor) (Drosophila, UniProt Q9VB22 1-658, R486F | R570F)
T1 sequence (looked up): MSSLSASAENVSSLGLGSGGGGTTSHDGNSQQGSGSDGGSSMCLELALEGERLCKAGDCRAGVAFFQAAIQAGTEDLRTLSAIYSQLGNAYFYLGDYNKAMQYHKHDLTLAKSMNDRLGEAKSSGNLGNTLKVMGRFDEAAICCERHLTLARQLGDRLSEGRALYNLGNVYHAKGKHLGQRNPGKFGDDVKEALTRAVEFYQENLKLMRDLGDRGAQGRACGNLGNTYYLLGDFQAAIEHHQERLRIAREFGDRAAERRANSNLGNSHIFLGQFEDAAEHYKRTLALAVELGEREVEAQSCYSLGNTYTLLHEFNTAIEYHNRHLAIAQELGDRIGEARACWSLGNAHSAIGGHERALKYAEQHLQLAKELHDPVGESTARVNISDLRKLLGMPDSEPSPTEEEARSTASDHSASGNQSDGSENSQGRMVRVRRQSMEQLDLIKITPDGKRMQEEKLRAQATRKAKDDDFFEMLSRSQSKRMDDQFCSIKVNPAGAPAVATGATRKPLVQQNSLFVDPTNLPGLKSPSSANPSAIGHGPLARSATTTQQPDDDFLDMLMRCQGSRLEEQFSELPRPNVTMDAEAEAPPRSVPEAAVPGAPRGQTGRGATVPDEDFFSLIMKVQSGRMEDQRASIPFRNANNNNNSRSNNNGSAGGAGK

B1: heterotrimeric G-protein alpha subunit Gαi, GDP-loaded (natural protein, UniProt P20353 1-355, looked up)
chain: MGCAVSTARDKEAIERSKNIDRALRAEGERAASEVKLLLLGAGESGKSTIVKQMKIIHDTGYSQEECEEYRRVVFSNTVQSLMVIIRAMGRLKIEFADPSRTDIARQFFTHASAADEGILLPEIVLLMKKLWADGGVQQSFARSREYQLNDSAGYYLNSLDRIAQPNYIPTQQDVLRTRVKTTGIIETHFSCKQLHFKLFDVGGQRSERKKWIHCFEGVTAIIFCVALSGYDLVLAEDEEMNRMIESLKLFDSICNSKWFVETSIILFLNKKDLFEEKIKRSPLTICFPEYTGTNTFEEAANYIRMKFENLNKRKDQKEIYTHLTCATDTNNVKFVFDAVTDVIIKNNLKQIGLF
B2: ΔGL1,2 Pins (R486F and R570F) (natural protein)
chain: T1 sequence (looked up)

Experiments:
[1] = molecular target: T1, YFP-ΔGL1,2 Pins-CFP fusion protein …; assay: FRET or BRET
[2] = molecular target: tetramethylrhodamine labeled Mud peptide (TMR-Mud) (Drosophila); assay: fluorescence polarisation

Kd [1] [µM] | Pins activation (%) [2] [%] | Binder
3.4 ± 0.3 |  | B1
 | 85 | B2
